Measurements reported in publication PMC2702820, “Pyrin Modulates the Intracellular Distribution of PSTPIP1” (PLoS ONE, 2009).
Each block holds one molecule with its values, some of them ahead of it.

Experiments:
[1] = target: PSTPIP1, endogenous, PAPA syndrome patient (human (endogenous in CD14+ cells)) (UniProt O43586); experiment: non-reducing SDS-PAGE with Western blot; lysates of CD14+ cells from controls and a PAPA patient, non-reducing conditions, probed with anti-PSTPIP1
[2] = target: the molecule itself; experiment: as above
[3] = target: the molecule itself; experiment: non-reducing SDS-PAGE; recombinant PSTPIP1 from E. coli run in the absence of added reducing agent, Coomassie stain

stoichiometry N [1]: 2
Molecule: PSTPIP1, endogenous, PAPA syndrome patient (from UniProt O43586 1-416) (natural protein)

B1: PSTPIP1 (proline serine threonine phosphatase-interacting protein 1), endogenous, control individuals (natural protein, human (endogenous in CD14+ cells), UniProt O43586 1-416, looked up)
chain: MMPQLQFKDAFWCRDFTAHTGYEVLLQRLLDGRKMCKDMEELLRQRAQAEERYGKELVQIARKAGGQTEINSLRASFDSLKQQMENVGSSHIQLALTLREELRSLEEFRERQKEQRKKYEAVMDRVQKSKLSLYKKAMESKKTYEQKCRDADDAEQAFERISANGHQKQVEKSQNKARQCKDSATEAERVYRQSIAQLEKVRAEWEQEHRTTCEAFQLQEFDRLTILRNALWVHSNQLSMQCVKDDELYEEVRLTLEGCSIDADIDSFIQAKSTGTEPPAPVPYQNYYDREVTPLTSSPGIQPSCGMIKRFSGLLHGSPKTTSLAASAASTETLTPTPERNEGVYTAIAVQEIQGNPASPAQEYRALYDYTAQNPDELDLSAGDILEVILEGEDGWWTVERNGQRGFVPGSYLEKL
notes: PSTPIP1, human, endogenous in CD14+ cells of control individuals (C1, C2); Major species runs at 95-96 kDa (dimer) on a non-reducing gel; minor monomer at 48 kDa and faint multimers; also called CD2BP1; source: endogenous, lysates of human CD14+ cells enriched from PBMC of control individuals
stoichiometry N [2]: 2

B2: Recombinant human PSTPIP1 protein expressed in E. coli (natural protein, UniProt O43586 1-416, looked up)
chain: B1 chain
notes: PSTPIP1, human, recombinant; monomer runs at 48 kDa; the purification is not described, only that several steps of the recovery need DTT; also called recombinant PSTPIP1; source: E. coli (pHIS8 plasmid), recovered recombinant protein
stoichiometry N [3]: 2
